Where two headings read alike, the source gives them in different places.
Columns and labels:
[1] = target: T4 capsid (empty head isolated from 10-amber 13-amber hoc-del soc-del T4 phage-infected E. coli) (bacteriophage T4) (UniProt P04535)
[2] = target: T4 capsid (empty head isolated from 10-amber 13-amber hoc-del soc-del T4 phage-infected E. coli) (bacteriophage T4) (UniProt P04535); assay: in vitro display on T4 heads, sedimentation, SDS-PAGE densitometry with gp23* as internal control
[3] = target: T4 capsid (empty head isolated from 10-amber 13-amber hoc-del soc-del T4 phage-infected E. coli) (bacteriophage T4) (UniProt P04535); assay: Soc-TAT displayed on T4(Luci) capsids used for transduction (FIG. 28)
[4] = target: T4 capsid (empty head isolated from 10-amber 13-amber hoc-del soc-del T4 phage-infected E. coli) (bacteriophage T4) (UniProt P04535); assay: display on T4 capsids at increasing ratios, SDS-PAGE (FIG. 20)
[5] = target: T4 capsid (empty head isolated from 10-amber 13-amber hoc-del soc-del T4 phage-infected E. coli) (bacteriophage T4) (UniProt P04535); assay: Cas9-Soc in complex with gRNA displayed on T4 capsid
[6] = target: T4 capsid (empty head isolated from 10-amber 13-amber hoc-del soc-del T4 phage-infected E. coli) (bacteriophage T4) (UniProt P04535); assay: Cas9-Soc in complex with siRNA displayed on T4 capsid
[7] = target: T4 capsid (empty head isolated from 10-amber 13-amber hoc-del soc-del T4 phage-infected E. coli) (bacteriophage T4) (UniProt P04535); assay: Cas9-Soc-gRNA RNP co-displayed with Cre-Hoc on the same T4 capsid
[8] = target: T4 capsid (empty head isolated from 10-amber 13-amber hoc-del soc-del T4 phage-infected E. coli) (bacteriophage T4) (UniProt P04535); assay: display on T4 capsids at increasing ratios, SDS-PAGE (FIG. 21)
[9] = target: T4 capsid (empty head isolated from 10-amber 13-amber hoc-del soc-del T4 phage-infected E. coli) (bacteriophage T4) (UniProt P04535); assay: Cre-Hoc co-displayed with Cas9-Soc-gRNA RNP on the same T4 capsid
[10] = target: T4 capsid (empty head isolated from 10-amber 13-amber hoc-del soc-del T4 phage-infected E. coli) (bacteriophage T4) (UniProt P04535); assay: copies displayed per T4 capsid, Soc-RGD against RGD-Hoc

Substance: Cre-Soc (SEQ ID NO: 22)
- Copies/ capsid (copies per capsid) [1]: 630

Substance: Cpf1-Soc (SEQ ID NO: 17)
- Copies/ capsid (copies per capsid) [2]: 450

Substance: Soc-TAT (from UniProt P03715 1-80)
- Copies/ capsid (copies per capsid) [1]: 750
- copies per capsid (copies per capsid) [3]: 520

Substance: β-Gal-Soc (from UniProt P00722 2-1024; P03715 1-80) (enzyme)
- Copies/ capsid (copies per capsid) [1]: 320
- ratio of protein molecules to binding sites at saturation (molecules per binding site) [4]: 15 to 20

Substance: GFP-Soc (from UniProt P03715 1-80)
- Copies/ capsid (copies per capsid) [1]: 660

Substance: Cas9-Soc (SEQ ID NO: 16) (from UniProt Q99ZW2 1-1368)
- Copies/ capsid (copies per capsid) [1]: 550
- copies per capsid (copies per capsid) [5]: 280
- copies per capsid (copies per capsid) [6]: 280
- molecules per AV (molecules per capsid) [7]: 270

Substance: Cre-Hoc (SEQ ID NO: 18)
- Copies/ capsid (copies per capsid) [1]: 95
- ratio of protein molecules to binding sites at saturation (molecules per binding site) [8]: 15 to 20
- molecules per AV (molecules per capsid) [9]: 50

Substance: Soc-RGD (from UniProt P03715 1-80)
- Copies/ capsid (copies per capsid) [1]: 710
- fold copy number against RGD-Hoc [10]: 8.3 fold

Substance: RGD-Hoc (SEQ ID NO: 19) (from UniProt P18056 1-376)
- Copies/ capsid (copies per capsid) [2]: 85
